{"source": "patent US20060239990A1", "about": "“Protein Arginine N-Methyltransferase 2 (PRMT-2)” (priority 2003, published 2006)", "key": {"293 cells": {"test_system": "293 cells", "experiment": "TNF-α-induced apoptosis in transfected 293 cells", "format": "cell-based, human", "conditions": "TNF-α 1000 U/ml 24 hours", "protocol": "Apoptosis analysis. Apoptosis in PRMT-2-expressing 293 cells was analyzed as follows. Cells were seeded at 2.5×10^5 per well in 6 well plates. The next day, empty vector, mutant IκBα (S32A/S36A), RelA or PRMT-2 was co-transfected with CD2 expression vector. Twenty-four hours after transfection cells were stimulated with TNF-α (1000 U/ml) for 24 hours. Both floating and attached cells in each well were harvested by EDTA treatment. Cells were stained with APC-labeled anti-CD2 antibody (BD Bioscience) in SM buffer (PBS containing 2% FCS). After washing twice with PBS, cells were stained with FITC-labeled Annexin V and propidium iodide using Annexin V FITC Apoptosis Detection Kit (Oncogene), and analyzed by flow cytometry (FACS Caliber, BD Bioscience)."}, "E2F1": {"test_system": "E2F1", "experiment": "E2F reporter assay (GAL4-E2F1 activator, luciferase)", "format": "cell-based", "protocol": "HeLa cells, U2OS cells, and Saos2 cells were seeded at a density of 5×10^4 per well in 24-well plates. Cells were transfected 24 hours later with the indicated plasmid and with 20 ng of pRL-TK (Promega) as an internal control to normalize transfection efficiency. The amount of CMV promoter in the transfection was kept constant using empty vector. Cells were harvested at 30 or 36 hour after transfection and luciferase activity was analyzed by Dual-Luciferase Reporter Assay System (Promega). Luciferase activity was measured as a ratio of Firefly to Renilla. To study endogenous E2F activity in MEFs, PRMT-2^+/+ or PRMT-2^−/− MEFs were seeded at a density of 3×10^5 per well in 6-well plates. Cells were transfected 24 hours later with 3 μg of E2F4B-Luc and 10 ng of pRL-TK plasmid. Cells were harvested at 36 hour after transfection and analyzed for luciferase activity as described above."}, "STAT3": {"test_system": "STAT3", "experiment": "STAT3 arginine methylation in transfected HEK293 cells", "format": "cell-based", "conditions": "24 hr after transfection, α-metR immunoblot", "protocol": "Vascular smooth muscle cells (VSMC) were prepared from the thoracic aorta of 12-week-old-male wild-type and PRMT-2^−/− mice by the explant method. Mouse embryo fibroblasts (MEFs) were prepared from 13.5-day wild-type and PRMT-2^−/− embryos. VSMCs and MEFs were cultured in Dulbecco's modified Eagle's medium (DMEM) containing 10% fetal calf serum (FCS) at 37° C. in a humidified atmosphere of 95% air-5% CO2. The integrity of PRMT-2 expression in the established VSMCs and MEFs lines was confirmed by Western and immunofluorescence analysis (data not shown). Quiescent VSMC (3-5th passages) that had been serum-starved for 48 hr were used in the following experiments. HEK293 cells were also grown in DMEM plus 10% FCS and were transiently transfected with FuGENE6 transfection reagent (Roche Applied Science, Indianapolis, Ind.) according to the manufacture's protocol. For each transfection, 2 μg of expression construct for mouse PRMT-2 and 8 μg for mouse STAT3 were used. After 24-48 hr of transfection, cells were used for the following experiments.\nImmunoprecipitation of STAT3 was performed as follows. […]"}, "MHC Class I": {"test_system": "MHC Class I", "experiment": "Flow cytometry of endogenous MHC Class I in 293T cells", "format": "cell-based, human", "conditions": "48 hrs after transfection", "protocol": "293 cells were transfected with 1 μg of the indicated reporter plasmids and 5 μg of either PRMT2-A or pVR1012 plasmids. Cells were harvested 36 hours post-transfection, and CAT assays were performed. Data shown are the mean (±SEM)-fold inhibition, in the presence of PRMT2-A, over a vector control of 3 independent experiments. […] 293T human embryonic kidney cells were transfected with HIV-luciferase reporter (WT) or ΔκB-luciferase reporter (ΔκB) and PRMT2 or control vector plasmid. 24 hrs after transfection, cells were treated with vehicle (left panel) or with TNF-α (20 ng/ml; middle panel) or PMA (10 ng/ml; right panel) as indicated, and luciferase activity was measured 48 hrs post transfection. […] 293T cells were transfected with HA-PRMT2 or HA-PRMT2-N. Transfected cells were detached after 48 hrs and analyzed by flow cytometry for MHC Class I and CD9 in HA-positive cells in PRMT2 (FIG. 2C) or PRMT2-N (FIG. 2D) transfected cells. […] 293T cells were transfected with plasmids as indicated where IKK2 or p65 was added as shown, and the κB luciferase reporter gene was used to monitor NF-κB activity 48 hrs after transfection. Values are expressed as fold stimulation compared to the control vector."}}}
{"molecule": "PRMT2: human PRMT-2 polypeptide, SEQ ID NO:2, expressed from pVR1012 vector with HA-tag (protein, listed as Homo sapiens, HA tag) MATSGDCPRSESQGEEPAECSEAGLLQEGVQPEEFVAIADYAATDETQLSFLRGEKILILRQTTADWWWGERAGCCGYIPANHVGKHVDEYDPEDTWQDEEYFGSYGTLKLHLEMLADQPRTTKYHSVILQNKESLTDKVILDVGCGTGIISLFCAHYARPRAVYAVEASEMAQHTGQLVLQNGFADIITVYQQKVEDVVLPEKVDVLVSEWMGTCLLFEFMIESILYARDAWLKEDGVIWPTMAALHLVPCSADKDYRSKVLFWDNAYEFNLSALKSLAVKEFFSKPKYNHILKPEDCLSEPCTILQLDMRTVQISDLETLRGELRFDIRKAGTLHGFTAWFSVHFQSLQEGQPPQVLSTGPFHPTTHWKQTLFMMDDPVPVHTGDVVTGSVVLQRNPVWRRHMSVALSWAVTSRQDPTSQKVGEKVFPIWR", "values": [{"measurement": "susceptibility to TNF-induced cell death", "setting": "293 cells", "value": "increased their susceptibility to TNF-induced cell death"}, {"measurement": "E2F1-induced promoter activity", "setting": "E2F1; HeLa cells, in the presence of the E2F1 activator", "value": "repressed E2F1-induced promoter activity in a dose-dependent manner"}, {"measurement": "E2F1 activity", "setting": "E2F1; Saos 2 cells (RB-deficient), without RB", "value": "did not repress E2F1 activity"}, {"measurement": "E2F repression", "setting": "E2F1; Saos 2 cells co-transfected with RB", "value": "E2F repression by PRMT2 in a dose-dependent manner was observed"}, {"measurement": "Stat3 methylation", "setting": "STAT3", "value": "endogenous methylated STAT3 was detected"}, {"measurement": "endogenous MHC Class I cell surface expression", "setting": "MHC Class I", "value": "decreased endogenous MHC Class I cell surface expression"}]}
